Test results as given in patent publication US20240409635A1 (VIBRANT PHARMA, published 2024).

T1: recombinant human tumor antigen CEACAM-6 (ACRO systems, CE6-H5223) (human, UniProt P40199 35-320)
T1 construct: Bought
T1 sequence (looked up): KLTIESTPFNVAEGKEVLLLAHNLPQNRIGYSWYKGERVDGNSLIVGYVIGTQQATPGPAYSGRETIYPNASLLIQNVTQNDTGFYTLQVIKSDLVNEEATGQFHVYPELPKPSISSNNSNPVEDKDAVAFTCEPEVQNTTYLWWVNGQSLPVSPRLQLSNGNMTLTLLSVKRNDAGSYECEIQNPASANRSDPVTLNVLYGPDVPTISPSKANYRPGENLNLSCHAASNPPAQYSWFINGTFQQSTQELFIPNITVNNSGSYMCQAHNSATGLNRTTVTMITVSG

B1: EGFR-BsAb (CD3 TA1-Fab x EGFR VHH bispecific control antibody) (bispecific antibody, human IgG4 S228P, kappa, F234A L235A)
heavy: EVKLLESGGGLVQPKGSLKLSCAASGFTFNTYAMNWVRQAPGKGLEWVARIRSKYNNYATYYADSVKDRFTISRDDSQSILYLQMNNLKTEDTAMYYCVRHGNFGNSYVSWFAYWGQGTLVTVSSASTKGPSVFPLAPCSRSTSESTAALGCLVKDYFPEPVTVSWNSGALTSGVHTFPAVLQSSGLYSLSSVVTVPSSSLGTKTYTCNVDHKPSNTKVDKRVESKYGPPCPPCPAPEAAGGPSVFLFPPKPKDTLMISRTPEVTCVVVDVSQEDPEVQFNWYVDGVEVHNAKTKPREEQFNSTYRVVSVLTVLHQDWLNGKEYKCKVSNKGLPSSIEKTISKAKGQPREPQVYTLPPCQEEMTKNQVSLWCLVKGFYPSDIAVEWESNGQPENNYKTTPPVLDSDGSFFLYSRLTVDKSRWQEGNVFSCSVMHEALHNHYTQKSLSLSL
chain: QVQLQESGGGSVQAGGSLKLSCAASGRGFSRYAMGWFRQAPGQDREFVATISWTNSTDYADSVKGRFAISRDNAKNTAYLQMNSLKPEDTAVYYCAADKWASSTRSIDYDYWGQGIQVTVSSESKYGPPCPPCPAPEAAGGPSVFLFPPKPKDTLMISRTPEVTCVVVDVSQEDPEVQFNWYVDGVEVHNAKTKPREEQFNSTYRVVSVLTVLHQDWLNGKEYKCKVSNKGLPSSIEKTISKAKGQPREPQVCTLPPSQEEMTKNQVSLSCAVKGFYPSDIAVEWESNGQPENNYKTTPPVLDSDGSFFLVSRLTVDKSRWQEGNVFSCSVMHEALHNRFTQKSLSLSL
light: QAVVTQESALTTSPGETVTLTCRSSTGAVTTSNYANWVQEKPDHLFTGLIGGTNKRAPGVPARFSGSLIGDKAALTITGAQTEDEAIYFCALWYSNLWVFGGGTKVEIKRTVAAPSVFIFPPSDEQLKSGTASVVCLLNNFYPREAKVQWKVDNALQSGNSQESVTEQDSKDSTYSLSSTLTLSKADYEKHKVYACEVTHQGLSSPVTKSFNRGEC
notes: also called anti-EGFR-BsAb
B2: CEA-BsAb bispecific control antibody (TA1-Fab anti-CD3 x CEA VHH) (bispecific antibody, human IgG4 S228P, kappa, F234A L235A)
heavy: EVKLLESGGGLVQPKGSLKLSCAASGFTFNTYAMNWVRQAPGKGLEWVARIRSKYNNYATYYADSVKDRFTISRDDSQSILYLQMNNLKTEDTAMYYCVRHGNFGNSYVSWFAYWGQGTLVTVSSASTKGPSVFPLAPCSRSTSESTAALGCLVKDYFPEPVTVSWNSGALTSGVHTFPAVLQSSGLYSLSSVVTVPSSSLGTKTYTCNVDHKPSNTKVDKRVESKYGPPCPPCPAPEAAGGPSVFLFPPKPKDTLMISRTPEVTCVVVDVSQEDPEVQFNWYVDGVEVHNAKTKPREEQFNSTYRVVSVLTVLHQDWLNGKEYKCKVSNKGLPSSIEKTISKAKGQPREPQVYTLPPCQEEMTKNQVSLWCLVKGFYPSDIAVEWESNGQPENNYKTTPPVLDSDGSFFLYSRLTVDKSRWQEGNVFSCSVMHEALHNHYTQKSLSLSL
chain: EVQLVESGGGFVQAGESLTLSCTSSTLTFTPYRMAWYRQAPGKQRDLVADISSGDGRTTNYADFAKGRFTISRDNIKNTVFLRMTNLKPEDTAVYYCNTFVSFVGIARSWGQGTQVTVSSESKYGPPCPPCPAPEAAGGPSVFLFPPKPKDTLMISRTPEVTCVVVDVSQEDPEVQFNWYVDGVEVHNAKTKPREEQFNSTYRVVSVLTVLHQDWLNGKEYKCKVSNKGLPSSIEKTISKAKGQPREPQVCTLPPSQEEMTKNQVSLSCAVKGFYPSDIAVEWESNGQPENNYKTTPPVLDSDGSFFLVSRLTVDKSRWQEGNVFSCSVMHEALHNRFTQKSLSLSL
light: QAVVTQESALTTSPGETVTLTCRSSTGAVTTSNYANWVQEKPDHLFTGLIGGTNKRAPGVPARFSGSLIGDKAALTITGAQTEDEAIYFCALWYSNLWVFGGGTKVEIKRTVAAPSVFIFPPSDEQLKSGTASVVCLLNNFYPREAKVQWKVDNALQSGNSQESVTEQDSKDSTYSLSSTLTLSKADYEKHKVYACEVTHQGLSSPVTKSFNRGEC
notes: IgG4
B3: CEACAM6-BsAb (CD3 TA1-Fab x CEA-CAM6 VHH bispecific control antibody) (bispecific antibody, human IgG4 S228P, kappa, F234A L235A)
heavy: EVKLLESGGGLVQPKGSLKLSCAASGFTFNTYAMNWVRQAPGKGLEWVARIRSKYNNYATYYADSVKDRFTISRDDSQSILYLQMNNLKTEDTAMYYCVRHGNFGNSYVSWFAYWGQGTLVTVSSASTKGPSVFPLAPCSRSTSESTAALGCLVKDYFPEPVTVSWNSGALTSGVHTFPAVLQSSGLYSLSSVVTVPSSSLGTKTYTCNVDHKPSNTKVDKRVESKYGPPCPPCPAPEAAGGPSVFLFPPKPKDTLMISRTPEVTCVVVDVSQEDPEVQFNWYVDGVEVHNAKTKPREEQFNSTYRVVSVLTVLHQDWLNGKEYKCKVSNKGLPSSIEKTISKAKGQPREPQVYTLPPCQEEMTKNQVSLWCLVKGFYPSDIAVEWESNGQPENNYKTTPPVLDSDGSFFLYSRLTVDKSRWQEGNVFSCSVMHEALHNHYTQKSLSLSL
chain: QVKLEESGGGLVQAGGSLRLSCRTSGRTNSVYTMGWFRQAPGKEREFVAQIMWGAGTNTHYADSVKGRFTISRDSAESTVYLQMNSLKPEDTAVYYCAANRGIPIAGRQYDYWGQGTQVTVSSESKYGPPCPPCPAPEAAGGPSVFLFPPKPKDTLMISRTPEVTCVVVDVSQEDPEVQFNWYVDGVEVHNAKTKPREEQFNSTYRVVSVLTVLHQDWLNGKEYKCKVSNKGLPSSIEKTISKAKGQPREPQVCTLPPSQEEMTKNQVSLSCAVKGFYPSDIAVEWESNGQPENNYKTTPPVLDSDGSFFLVSRLTVDKSRWQEGNVFSCSVMHEALHNRFTQKSLSLSL
light: QAVVTQESALTTSPGETVTLTCRSSTGAVTTSNYANWVQEKPDHLFTGLIGGTNKRAPGVPARFSGSLIGDKAALTITGAQTEDEAIYFCALWYSNLWVFGGGTKVEIKRTVAAPSVFIFPPSDEQLKSGTASVVCLLNNFYPREAKVQWKVDNALQSGNSQESVTEQDSKDSTYSLSSTLTLSKADYEKHKVYACEVTHQGLSSPVTKSFNRGEC
notes: also called anti-CEA-CAM6-BsAb
B4: HER2-BsAb bispecific control antibody (TA1-Fab anti-CD3 x HER2 VHH) (bispecific antibody, human IgG4 S228P, kappa, F234A L235A)
heavy: EVKLLESGGGLVQPKGSLKLSCAASGFTFNTYAMNWVRQAPGKGLEWVARIRSKYNNYATYYADSVKDRFTISRDDSQSILYLQMNNLKTEDTAMYYCVRHGNFGNSYVSWFAYWGQGTLVTVSSASTKGPSVFPLAPCSRSTSESTAALGCLVKDYFPEPVTVSWNSGALTSGVHTFPAVLQSSGLYSLSSVVTVPSSSLGTKTYTCNVDHKPSNTKVDKRVESKYGPPCPPCPAPEAAGGPSVFLFPPKPKDTLMISRTPEVTCVVVDVSQEDPEVQFNWYVDGVEVHNAKTKPREEQFNSTYRVVSVLTVLHQDWLNGKEYKCKVSNKGLPSSIEKTISKAKGQPREPQVYTLPPCQEEMTKNQVSLWCLVKGFYPSDIAVEWESNGQPENNYKTTPPVLDSDGSFFLYSRLTVDKSRWQEGNVFSCSVMHEALHNHYTQKSLSLSL
chain: QVQLVQSGGGLVQAGGSLRLSCAASGRTFSSYAMAWFRQAPGKEREFVAAISWSGANIYVADSVKGRFTISRDNAKDTVYLQMNSLKPEDTAVYYCAVKLGFAPVEERQYDYWGQGTQVTVSSESKYGPPCPPCPAPEAAGGPSVFLFPPKPKDTLMISRTPEVTCVVVDVSQEDPEVQFNWYVDGVEVHNAKTKPREEQFNSTYRVVSVLTVLHQDWLNGKEYKCKVSNKGLPSSIEKTISKAKGQPREPQVCTLPPSQEEMTKNQVSLSCAVKGFYPSDIAVEWESNGQPENNYKTTPPVLDSDGSFFLVSRLTVDKSRWQEGNVFSCSVMHEALHNRFTQKSLSLSL
light: QAVVTQESALTTSPGETVTLTCRSSTGAVTTSNYANWVQEKPDHLFTGLIGGTNKRAPGVPARFSGSLIGDKAALTITGAQTEDEAIYFCALWYSNLWVFGGGTKVEIKRTVAAPSVFIFPPSDEQLKSGTASVVCLLNNFYPREAKVQWKVDNALQSGNSQESVTEQDSKDSTYSLSSTLTLSKADYEKHKVYACEVTHQGLSSPVTKSFNRGEC
notes: IgG4

Experiments:
[1] = target: T2, recombinant human protein CD3ε/δ (ACRO systems, CDD-H52W1) (human, UniProt P07766 23-126; P04234 22-105); assay: BLI, antibody on AHC sensor, antigen as analyte
T2 construct: Bought heterodimer
Method: (§1) Antibodies were first captured onto an anti-human IgG Fc coated AHC biosensor (Anti-hIgG Fc, Sartorius, 18-5060). Antibodies were diluted to 5 μg/mL and 1.5 nm protein was coupled to the AHC sensor surface in 0.02% PBST.
(§2) After the sensor captures the antibodies, it binds and dissociates with different concentrations of analytes to obtain the KD value of the interaction. The experimental parameters are as follows: Baseline1: 60 s, Loading: 240 s, Baseline2: 180 s, Association: 240 s, Dissociation: 600 s, High sensitivity kinetics: 2 Hz. Kinetic constants were derived based on the rate equation for 1:1 Langmuir binding to obtain equilibrium dissociation constants (KD). The Data Analysis HT 12 software (Sartorius, 50-5029) was used to simultaneously fit binding and dissociation curves to calculate Kₒₙ and Koff. The affinity KD was calculated based on the below formula: KD=Koff/Kₒₙ.

[2] = target: T3, recombinant human EGFR protein (ACRO systems, EGR-H5222) (human, UniProt P00533 25-645); assay: BLI, antibody on AHC sensor, antigen as analyte
T3 construct: Bought
Method: as §1, §2

[3] = target: T1, recombinant human tumor antigen …; assay: BLI, antibody on AHC sensor, antigen as analyte
Method: as §1, §2

Insulin = target: T4, Insulin; assay: ELISA, insulin coated, 100 nM antibody
T4 construct: Bought reagent, coated at 5 ug/mL
Method: (§3) The experimental steps are as follows [0420] […] (4) 50 μl anti-human IgG-HRP conjugate (Sigma, AP113P, 1:8000 dilution) was added to each well; the plate was incubated for 1 h at room temperature and washed 6 times with 0.05% PBST; [0424] (5) 50 μl of TMB chromogenic solution (Biopanda, TMB-S-001) was added to each well and incubated at room temperature for 10-15 minutes for color development; [0425] (6) 50 μl of 1M HCl was added to each well to stop the color development, and the absorbance at 450 nm was measured using a microplate reader (Biotek, SYNERGY LX); Data analysis: If the ratio between the absorbance of the antibody and the absorbance of the blank control PBS is ≥3, there is too much non-specific binding.

[4] = target: T5, keyhole limpet haemocyanin; assay: ELISA, KLH coated, 100 nM antibody
T5 construct: Bought reagent, coated at 5 ug/mL; also called KLH
Method: as §3

T2 sequence (P07766 23-126, stated change not applied, chain 1 of 2): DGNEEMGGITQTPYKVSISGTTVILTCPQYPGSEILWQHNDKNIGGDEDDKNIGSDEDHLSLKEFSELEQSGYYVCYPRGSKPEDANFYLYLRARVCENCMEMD
T2 sequence (P04234 22-105, stated change not applied, chain 2 of 2): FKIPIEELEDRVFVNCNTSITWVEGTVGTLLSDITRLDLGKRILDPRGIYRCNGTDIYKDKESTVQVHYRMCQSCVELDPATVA

Row | Binder | Kd [1] [nM] | koff [1] [s⁻¹] | kon [1] [M⁻¹ s⁻¹] | Kd [2] [nM] | koff [2] [s⁻¹] | kon [2] [M⁻¹ s⁻¹] | koff [3] [s⁻¹] | kon [3] [M⁻¹ s⁻¹] | absorbance ratio to PBS blank (Insulin) | absorbance ratio to PBS blank [4] | Kd [3] [nM]
1 | B1 | 6.43 | 0.00338 | 526000 | 4.43 | 0.00519 | 1.17e+06 | 0.000247 | 222000 | – | – | –
2 | B2 | – | – | – | – | – | – | – | – | 1.24 | 2.16 | –
3 | B3 | 5.73 | 0.00421 | 734000 | – | 0.00143 | 570000 | 0.000336 | 206000 | – | – | 1.64
4 | B4 | – | – | – | – | – | – | – | – | 1.69 | 2.31 | –
